Test results as given in patent US20040058403A1.

Molecular target: peptide(18mer)-BodipyFL

## NlpA-[Dig scFv] (26-10 anti-digoxin/digoxigenin scFv fused to the NlpA anchor) (from UniProt P04846 24-29)
  M (mean fluorescence, FL1-Height): 6.78
